“Also recorded” adds a separate entry of the source.
What was measured:
[1] = target: T1, CHO cells expressing murine CD39 (CHO-moCD39) (Mus musculus, UniProt P55772); assay: Antibody titration on CHO-moCD39 cells by flow cytometry; type: binding
T1 construct: expressed in transfected cells; host or cells: CHO cells
T1 sequence (P55772 1-510): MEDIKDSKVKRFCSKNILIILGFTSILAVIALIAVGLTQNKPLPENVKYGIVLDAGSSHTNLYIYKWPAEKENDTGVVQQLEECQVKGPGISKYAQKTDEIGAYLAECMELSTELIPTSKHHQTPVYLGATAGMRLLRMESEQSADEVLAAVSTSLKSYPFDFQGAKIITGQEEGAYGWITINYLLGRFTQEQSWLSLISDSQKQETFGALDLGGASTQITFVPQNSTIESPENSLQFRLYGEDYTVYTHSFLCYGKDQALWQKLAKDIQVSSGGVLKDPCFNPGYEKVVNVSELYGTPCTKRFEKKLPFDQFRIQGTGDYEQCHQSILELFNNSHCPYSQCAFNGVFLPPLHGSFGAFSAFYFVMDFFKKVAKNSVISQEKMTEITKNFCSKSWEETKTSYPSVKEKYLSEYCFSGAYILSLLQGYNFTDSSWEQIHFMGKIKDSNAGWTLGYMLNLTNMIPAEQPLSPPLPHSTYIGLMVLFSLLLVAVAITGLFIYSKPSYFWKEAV
Description: Cells were incubated with various concentration of unlabeled anti-CD39 antibody from 30 μg/ml to 5×10^−4 μg/ml, for 30 minutes at 4° C. After washes, cells were incubated with Goat anti-mouse H+L labeled secondary antibody for 30 min at 4° C.

CD4 T cells = assay: T cell proliferation assay in presence of added ATP, CD4 T cells; type: cell-based, human
Description: Peripheral blood from healthy donors was obtained from EFS, and mononuclear cells were isolated on a Ficoll gradient. Lymphocytes were further enriched on a 52% Percoll gradient by collection of the cell pellets and stained with a Cell Trace dye (Thermofisher) following the TDS provided by the manufacturer. […] Inhibition of T cell proliferation was achieved by addition of ATP (200 μM). T cell proliferation and ability of Abs to block immune suppressive effect of AMP were assessed by flow cytometry by quantifying the dye dilution in the proliferating T cell subset.
Percentage of proliferating T cells vs. anti-CD73 Ab concentration is plotted in graphs using GraphPad Prism software.

human CD39 = target: T2, human CD39 (Homo sapiens, UniProt P49961); assay: ELISA titration on recombinant human CD39; type: binding
T2 sequence (P49961 1-510): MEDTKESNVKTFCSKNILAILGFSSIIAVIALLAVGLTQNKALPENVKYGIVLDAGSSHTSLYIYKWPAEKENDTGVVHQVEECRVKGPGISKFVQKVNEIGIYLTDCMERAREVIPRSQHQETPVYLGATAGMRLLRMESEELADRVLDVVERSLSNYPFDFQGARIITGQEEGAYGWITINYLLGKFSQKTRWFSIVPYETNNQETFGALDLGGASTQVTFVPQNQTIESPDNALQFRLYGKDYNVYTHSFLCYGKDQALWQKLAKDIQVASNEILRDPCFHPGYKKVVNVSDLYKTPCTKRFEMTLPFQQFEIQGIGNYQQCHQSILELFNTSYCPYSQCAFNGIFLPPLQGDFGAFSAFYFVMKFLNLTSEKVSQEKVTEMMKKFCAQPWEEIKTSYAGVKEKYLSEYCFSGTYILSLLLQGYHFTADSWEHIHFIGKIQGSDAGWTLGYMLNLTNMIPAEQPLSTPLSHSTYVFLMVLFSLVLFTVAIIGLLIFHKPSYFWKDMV
Description: (§1) Wells were washed in TBS Tween 20, and further saturated 2H at RT in TBS Blocking buffer. Dose range concentration of primary antibody was incubated in TBS blocking buffer for 2h at RT. Wells were washed in TBS Tween 20. […] Optical density was measured on Enspire™ at OD=450.

allogenic CD4 T cells = assay: Mixed lymphocytes reaction (MLR) of ATP-activated MoDC with allogenic CD4 T cells; type: cell-based, human; details: MoDC activated in presence of ATP
Description: Briefly, human monocytes were purified from human healthy blood and differentiated into MoDC in presence of GM-CSF and IL-4 during 6 days. Then MoDC were activated in presence of ATP (Sigma, 0.25-1 mM) during 24 hours and DC activation were assessed by analyzing CD80, CD83 and HLA-DR expression by flow cytometry. […] LPS (Invivogen, 10 ng/ml) was used as positive control. To assess resulting effect of ATP-mediated DC activation on CD4 T cells activation, ATP-activated DC were washed and then incubated with allogenic CD4 T cells (ratio 1 MoDC/4 T cells) for a mixed lymphocytes reaction (MLR) during 5 days. T cells activation and proliferation were analyzed through CD25 expression and Cell Trace Violet dilution by flow cytometry (FIG. 8).

[2] = target: T3, Human CD39-L4 (NTPDase5, ENTPD5) (Homo sapiens, UniProt O75356); assay: ELISA titration on CD39-L4; type: binding
T3 sequence (O75356 25-428): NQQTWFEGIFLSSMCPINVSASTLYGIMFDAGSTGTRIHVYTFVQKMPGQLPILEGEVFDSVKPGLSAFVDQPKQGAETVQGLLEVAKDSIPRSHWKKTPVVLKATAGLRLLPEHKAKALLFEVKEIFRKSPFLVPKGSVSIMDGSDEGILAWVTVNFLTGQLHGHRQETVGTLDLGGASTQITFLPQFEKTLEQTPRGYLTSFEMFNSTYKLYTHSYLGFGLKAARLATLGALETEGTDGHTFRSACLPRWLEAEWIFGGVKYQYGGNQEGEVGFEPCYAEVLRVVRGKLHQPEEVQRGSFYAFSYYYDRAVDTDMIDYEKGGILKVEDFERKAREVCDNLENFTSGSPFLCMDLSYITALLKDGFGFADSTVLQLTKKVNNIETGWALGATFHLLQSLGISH
Description: as §1

binding to cells expressing murine CD39 [1]: not to cells expressing murine CD39
binding to human CD39 in ELISA (human CD39): bound; also recorded: binds
binding to CD39-L4 in ELISA [2]: not to any of the human isoforms
B1: I-394: anti-CD39 antibody, VH SEQ ID NO: 6, VL SEQ ID NO: 7; heavy/light chains SEQ ID NOS: 52 and 53 (antibody)
heavy: EVQLQQSGPELVKPGASVKMSCKASGYTFTDYNMHWVKQSHGRTLEWIGYIVPLNGGSTFNQKFKGRATLTVNTSSRTAYMELRSLTSEDSAAYYCARGGTRFAYWGQGTLVTVSAASTKGPSVFPLAPSSKSTSGGTAALGCLVKDYFPEPVTVSWNSGALTSGVHTFPAVLQSSGLYSLSSVVTVPSSSLGTQTYICNVNHKPSNTKVDKRVEPKSCDKTHTCPPCPAPEAEGAPSVFLFPPKPKDTLMISRTPEVTCVVVDVSHEDPEVKFNWYVDGVEVHNAKTKPREEQYNSTYRVVSVLTVLHQDWLNGKEYKCKVSNKALPSSIEKTISKAKGQPREPQVYTLPPSREEMTKNQVSLTCLVKGFYPSDIAVEWESNGQPENNYKTTPPVLDSDGSFFLYSKLTVDKSRWQQGNVFSCSVMHEALHNHYTQKSLSLSPGK
light: DIVLTQSPASLAVSLGQRATISCRASESVDNFGVSFMYWFQQKPGQPPNLLIYGASNQGSGVPARFRGSGSGTDFSLNIHPMEADDTAMYFCQQTKEVPYTFGGGTKLEIKRTVAAPSVFIFPPSDEQLKSGTASVVCLLNNFYPREAKVQWKVDNALQSGNSQESVTEQDSKDSTYSLSSTLTLSKADYEKHKVYACEVTHQGLSSPVTKSFNRGEC
modifications: Chimeric homo sapiens mus musculus
potentiation of anti-CD73 antibodies in restoring CD4 T cell proliferation (CD4 T cells; added ATP 200 μM, anti-CD39 at 0.01, 0.1, 1 μg/ml): strongly potentiation
increase in potency of anti-CD73 antibodies (CD4 T cells; anti-CD39 antibody at 0.01 μg/ml): approximately 1 log
increase in potency of anti-CD73 antibodies (CD4 T cells; anti-CD39 antibody at 0.1 μg/ml): approximately 4 log
enhancement of CD4 T cell proliferation, alone without anti-CD73 (CD4 T cells; concentrations of 0.1 μg/ml and 1 μg/ml, added ATP): remarkable enhancement
T cell proliferation and activation (CD25 expression, Cell Trace Violet dilution) in MLR (allogenic CD4 T cells): higher T cell proliferation and activation

From patent US20230099801A1, “RESTORATION OF T CELL ACTIVITY VIA THE CD39/CD73 AXIS” (INNATE PHARMA, priority 2017, published 2023)
